Data on four substances can be found in US20140044713A1.

Assay [1] deals with Lgr4 (endogenous, or expression construct whose tag is not stated) (human) (UniProt Q9BXB1). The experiment in a line: TAP (anti-FLAG, anti-HA) + mass spectrometry, bait stably expressed in LS174T cells, Exp 7, prey LGR4.
The target of assay [2] is Lgr5 (endogenous, or expression construct whose tag is not stated) (human) (UniProt O75473). The experiment in a line: TAP (anti-FLAG, anti-HA) + mass spectrometry, bait stably expressed in LS174T cells, Exp 7, prey LGR5.
For assay [3], the target named is LRP5 (endogenous) (human) (UniProt O75197). The assay can be described thus: TAP (anti-FLAG, anti-HA) + mass spectrometry, bait stably expressed in LS174T cells, Exp 7, prey LRP5.
The target of assay [4] is LRP6 (endogenous) (human) (UniProt O75581). The assay can be described thus: TAP (anti-FLAG, anti-HA) + mass spectrometry, bait stably expressed in LS174T cells, Exp 7, prey LRP6.
Assay [5] concerns the target Lgr5 (endogenous, or expression construct whose tag is not stated) (human) (UniProt O75473). The assay can be described thus: TAP (anti-FLAG, anti-HA) + mass spectrometry, bait stably expressed in LS174T cells, Exp 2, prey LGR5.
The target in assay [6] is LRP6 (endogenous) (human) (UniProt O75581). The assay can be described thus: TAP (anti-FLAG, anti-HA) + mass spectrometry, bait stably expressed in LS174T cells, Exp 2, prey LRP6.
The target of assay [7] is Frz5 (endogenous, LS174T cells) (human) (UniProt Q13467). The experiment in a line: TAP (anti-FLAG, anti-HA) + mass spectrometry, bait stably expressed in LS174T cells, Exp 2, prey Frzd5.
The target in assay [8] is Frz7 (endogenous, LS174T cells) (human) (UniProt O75084). The assay can be described thus: TAP (anti-FLAG, anti-HA) + mass spectrometry, bait stably expressed in LS174T cells, Exp 2, prey Frzd7.
The target of assay [9] is Lgr4 (endogenous, or expression construct whose tag is not stated) (human) (UniProt Q9BXB1). The experiment in a line: cell-based or functional assay.
The target of assay [10] is LRP6 (endogenous) (human) (UniProt O75581). The experiment in a line: TAP (anti-FLAG, anti-HA) + mass spectrometry, bait stably expressed in LS174T cells, Exp 3, prey LRP6.
Assay [11] deals with LRP5 (endogenous) (human) (UniProt O75197). The assay can be described thus: TAP (anti-FLAG, anti-HA) + mass spectrometry, bait stably expressed in LS174T cells, Exp 4, prey LRP5.
Assay [12] concerns the target LRP6 (endogenous) (human) (UniProt O75581). The experiment in a line: TAP (anti-FLAG, anti-HA) + mass spectrometry, bait stably expressed in LS174T cells, Exp 4, prey LRP6.
Assay [13] deals with LRP5 (endogenous) (human) (UniProt O75197). The experiment in a line: TAP (anti-FLAG, anti-HA) + mass spectrometry, bait stably expressed in LS174T cells, Exp 5, prey LRP5.
The target in assay [14] is LRP6 (endogenous) (human) (UniProt O75581). The assay can be described thus: TAP (anti-FLAG, anti-HA) + mass spectrometry, bait stably expressed in LS174T cells, Exp 5, prey LRP6.
Assay [15] deals with LRP5 (endogenous) (human) (UniProt O75197). The experiment in a line: TAP (anti-FLAG, anti-HA) + mass spectrometry, bait stably expressed in LS174T cells, Exp 6, prey LRP5.
Assay [16] addresses Frz6 (endogenous, LS174T cells) (human) (UniProt O60353). The experiment in a line: TAP (anti-FLAG, anti-HA) + mass spectrometry, bait stably expressed in LS174T cells, Exp 3, prey Frzd6.
For assay [17] the target is unchanged. The experiment in a line: TAP (anti-FLAG, anti-HA) + mass spectrometry, bait stably expressed in LS174T cells, Exp 4, prey Frzd6.
Assay [18] shares this target. The experiment in a line: TAP (anti-FLAG, anti-HA) + mass spectrometry, bait stably expressed in LS174T cells, Exp 5, prey Frzd6.
The target is the same in assay [19]. The experiment in a line: TAP (anti-FLAG, anti-HA) + mass spectrometry, bait stably expressed in LS174T cells, Exp 6, prey Frzd6.

Chain of Frz6 (endogenous, LS174T cells) (human) (O60353 19-706): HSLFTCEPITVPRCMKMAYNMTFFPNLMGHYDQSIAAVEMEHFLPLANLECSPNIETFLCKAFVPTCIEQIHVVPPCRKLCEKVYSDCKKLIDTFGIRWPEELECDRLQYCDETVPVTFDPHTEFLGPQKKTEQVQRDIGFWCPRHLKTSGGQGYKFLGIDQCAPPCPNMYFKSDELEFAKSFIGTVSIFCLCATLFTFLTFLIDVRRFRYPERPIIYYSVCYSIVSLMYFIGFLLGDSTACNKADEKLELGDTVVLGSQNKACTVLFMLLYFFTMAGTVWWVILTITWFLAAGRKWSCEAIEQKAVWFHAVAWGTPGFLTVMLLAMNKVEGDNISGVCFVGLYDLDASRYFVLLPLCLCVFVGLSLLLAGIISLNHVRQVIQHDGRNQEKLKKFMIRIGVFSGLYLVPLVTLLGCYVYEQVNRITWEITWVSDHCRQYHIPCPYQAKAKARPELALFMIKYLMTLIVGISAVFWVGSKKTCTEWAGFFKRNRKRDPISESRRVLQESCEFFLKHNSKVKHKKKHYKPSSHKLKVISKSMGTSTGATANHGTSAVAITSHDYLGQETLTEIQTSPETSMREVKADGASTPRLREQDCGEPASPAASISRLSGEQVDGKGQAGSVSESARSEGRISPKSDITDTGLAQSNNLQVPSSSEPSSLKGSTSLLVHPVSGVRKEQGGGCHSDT
Chain of LRP6 (endogenous) (human) (O75581 20-1613): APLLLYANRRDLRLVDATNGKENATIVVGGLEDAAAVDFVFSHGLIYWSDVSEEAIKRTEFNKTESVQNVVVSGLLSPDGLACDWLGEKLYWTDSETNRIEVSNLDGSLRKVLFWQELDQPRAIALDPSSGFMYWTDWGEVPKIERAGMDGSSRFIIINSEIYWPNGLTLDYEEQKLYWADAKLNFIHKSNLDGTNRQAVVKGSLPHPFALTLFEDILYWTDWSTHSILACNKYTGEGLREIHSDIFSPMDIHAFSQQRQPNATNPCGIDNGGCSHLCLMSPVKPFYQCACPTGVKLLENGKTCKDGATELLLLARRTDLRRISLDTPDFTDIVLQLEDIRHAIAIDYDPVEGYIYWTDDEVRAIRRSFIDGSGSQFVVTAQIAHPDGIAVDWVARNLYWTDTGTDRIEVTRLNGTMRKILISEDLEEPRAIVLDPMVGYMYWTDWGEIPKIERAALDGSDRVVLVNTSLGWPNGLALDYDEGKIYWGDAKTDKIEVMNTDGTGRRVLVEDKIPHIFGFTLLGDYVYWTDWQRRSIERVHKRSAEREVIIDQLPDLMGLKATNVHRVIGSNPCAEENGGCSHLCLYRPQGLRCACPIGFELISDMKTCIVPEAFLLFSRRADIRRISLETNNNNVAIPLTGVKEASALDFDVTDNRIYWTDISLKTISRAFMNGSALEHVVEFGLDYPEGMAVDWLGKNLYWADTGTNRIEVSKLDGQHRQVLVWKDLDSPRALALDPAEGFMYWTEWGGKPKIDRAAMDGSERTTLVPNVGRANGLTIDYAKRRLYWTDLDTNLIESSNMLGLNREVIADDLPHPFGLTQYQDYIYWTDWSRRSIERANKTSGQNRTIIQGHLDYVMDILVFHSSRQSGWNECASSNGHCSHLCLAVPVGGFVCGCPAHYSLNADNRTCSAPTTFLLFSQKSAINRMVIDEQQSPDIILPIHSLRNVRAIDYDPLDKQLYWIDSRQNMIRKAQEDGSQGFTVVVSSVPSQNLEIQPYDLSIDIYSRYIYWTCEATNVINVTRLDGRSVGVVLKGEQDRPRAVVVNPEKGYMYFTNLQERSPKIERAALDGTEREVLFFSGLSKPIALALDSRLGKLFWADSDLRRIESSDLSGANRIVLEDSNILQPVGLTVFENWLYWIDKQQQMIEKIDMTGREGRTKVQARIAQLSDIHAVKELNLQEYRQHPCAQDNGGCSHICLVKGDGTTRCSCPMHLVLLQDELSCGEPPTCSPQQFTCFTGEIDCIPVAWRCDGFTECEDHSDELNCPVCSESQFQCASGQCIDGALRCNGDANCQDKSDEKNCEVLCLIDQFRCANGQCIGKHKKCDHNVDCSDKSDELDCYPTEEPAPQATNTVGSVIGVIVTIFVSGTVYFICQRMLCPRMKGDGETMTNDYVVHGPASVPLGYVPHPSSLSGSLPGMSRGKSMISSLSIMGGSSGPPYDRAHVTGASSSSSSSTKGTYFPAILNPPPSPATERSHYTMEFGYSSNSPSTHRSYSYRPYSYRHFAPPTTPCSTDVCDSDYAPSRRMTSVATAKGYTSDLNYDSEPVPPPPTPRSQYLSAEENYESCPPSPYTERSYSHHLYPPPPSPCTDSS
Chain of Lgr5 (endogenous, or expression construct whose tag is not stated) (human) (O75473 22-907): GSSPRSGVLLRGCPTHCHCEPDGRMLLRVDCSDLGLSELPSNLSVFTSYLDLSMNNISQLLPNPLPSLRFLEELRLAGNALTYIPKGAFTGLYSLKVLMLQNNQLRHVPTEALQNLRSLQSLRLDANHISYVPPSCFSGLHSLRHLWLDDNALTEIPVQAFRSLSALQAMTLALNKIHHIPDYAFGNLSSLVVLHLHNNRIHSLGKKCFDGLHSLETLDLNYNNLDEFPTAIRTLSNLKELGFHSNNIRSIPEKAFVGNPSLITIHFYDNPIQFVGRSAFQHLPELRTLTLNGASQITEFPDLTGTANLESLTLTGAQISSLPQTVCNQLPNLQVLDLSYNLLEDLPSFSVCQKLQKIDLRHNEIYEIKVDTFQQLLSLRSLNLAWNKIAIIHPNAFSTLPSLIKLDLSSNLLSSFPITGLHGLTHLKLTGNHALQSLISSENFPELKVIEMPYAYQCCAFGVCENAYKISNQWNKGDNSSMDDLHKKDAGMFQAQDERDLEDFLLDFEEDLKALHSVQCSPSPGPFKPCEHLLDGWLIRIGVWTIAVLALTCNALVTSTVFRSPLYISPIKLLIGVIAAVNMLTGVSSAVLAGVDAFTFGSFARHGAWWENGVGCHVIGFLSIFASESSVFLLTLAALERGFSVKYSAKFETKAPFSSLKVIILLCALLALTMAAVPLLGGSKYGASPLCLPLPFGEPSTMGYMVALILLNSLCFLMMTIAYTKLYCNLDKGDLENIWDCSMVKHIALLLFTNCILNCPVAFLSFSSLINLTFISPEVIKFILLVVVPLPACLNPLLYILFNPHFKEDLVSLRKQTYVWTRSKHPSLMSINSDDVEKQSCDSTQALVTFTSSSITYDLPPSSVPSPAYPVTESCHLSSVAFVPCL
Chain of LRP5 (endogenous) (human) (O75197 32-1615): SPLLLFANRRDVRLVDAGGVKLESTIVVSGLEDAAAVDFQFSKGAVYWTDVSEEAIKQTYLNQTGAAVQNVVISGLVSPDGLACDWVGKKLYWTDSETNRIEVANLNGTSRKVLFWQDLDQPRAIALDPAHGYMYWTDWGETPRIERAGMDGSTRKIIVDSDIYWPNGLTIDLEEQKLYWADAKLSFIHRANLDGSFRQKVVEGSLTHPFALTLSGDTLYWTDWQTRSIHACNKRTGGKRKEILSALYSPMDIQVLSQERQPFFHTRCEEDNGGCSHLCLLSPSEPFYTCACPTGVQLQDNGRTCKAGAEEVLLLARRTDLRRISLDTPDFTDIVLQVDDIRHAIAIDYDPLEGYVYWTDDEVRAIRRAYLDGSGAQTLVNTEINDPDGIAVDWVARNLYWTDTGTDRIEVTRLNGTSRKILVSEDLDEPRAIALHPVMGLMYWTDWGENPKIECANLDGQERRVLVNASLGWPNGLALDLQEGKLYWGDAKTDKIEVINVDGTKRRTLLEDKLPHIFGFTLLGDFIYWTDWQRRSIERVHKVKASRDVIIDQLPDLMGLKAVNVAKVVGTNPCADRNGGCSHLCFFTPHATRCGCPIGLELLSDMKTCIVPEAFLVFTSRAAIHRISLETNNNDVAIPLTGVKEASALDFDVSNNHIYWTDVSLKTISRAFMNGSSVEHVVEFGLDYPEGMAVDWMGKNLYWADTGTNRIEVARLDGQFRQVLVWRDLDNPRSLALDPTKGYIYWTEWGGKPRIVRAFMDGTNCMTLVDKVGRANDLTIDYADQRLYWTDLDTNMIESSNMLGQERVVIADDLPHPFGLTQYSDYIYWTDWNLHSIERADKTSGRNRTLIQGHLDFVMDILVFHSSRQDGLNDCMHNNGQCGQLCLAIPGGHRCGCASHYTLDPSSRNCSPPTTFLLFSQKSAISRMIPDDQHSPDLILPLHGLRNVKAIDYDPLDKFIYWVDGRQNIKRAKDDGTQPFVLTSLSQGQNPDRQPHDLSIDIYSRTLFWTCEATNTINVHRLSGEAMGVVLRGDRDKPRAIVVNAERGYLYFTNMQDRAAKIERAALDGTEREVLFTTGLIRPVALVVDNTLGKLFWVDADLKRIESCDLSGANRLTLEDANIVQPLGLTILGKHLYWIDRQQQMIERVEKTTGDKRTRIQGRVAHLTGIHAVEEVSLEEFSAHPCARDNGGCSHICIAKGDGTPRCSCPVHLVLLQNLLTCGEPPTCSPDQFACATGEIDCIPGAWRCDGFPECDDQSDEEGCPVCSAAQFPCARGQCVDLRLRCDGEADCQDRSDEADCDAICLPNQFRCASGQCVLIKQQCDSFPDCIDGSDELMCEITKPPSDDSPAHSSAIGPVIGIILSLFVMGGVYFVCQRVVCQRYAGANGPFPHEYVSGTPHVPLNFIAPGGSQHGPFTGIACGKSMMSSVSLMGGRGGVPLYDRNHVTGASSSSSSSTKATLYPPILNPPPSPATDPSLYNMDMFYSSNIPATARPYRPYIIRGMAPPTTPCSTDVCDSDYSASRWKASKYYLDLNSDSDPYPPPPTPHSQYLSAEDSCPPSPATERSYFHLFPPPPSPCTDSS

As for “tagged Frizzled5 (Frz5) (from UniProt Q13467 27-585) (receptor)”, the # unique peptides was determined as 10 in assay [1], 2 in assay [2], 3 in [3] and 10 in assay [4]. The MASCOT Protein score (MudPit) in assay [1] is 456; in [2], 33; in assay [3] it was 166; in assay [4] it was 279. The assigned spectra stood at 30 in assay [1], 2 in [2], 5 in assay [3] and 14 in assay [4].
With “FLAG/HA-tagged Lgr4 (from UniProt Q9BXB1 25-951) (receptor)”, the # unique peptides in assay [5] came out at 7; in assay [6], 3; in [7], 1; in assay [8], 1. Further, the MASCOT Protein score (MudPit) stood at 62 in [5], 32 in assay [6], 22 in assay [7] and 87 in assay [8]. The assigned spectra stood at 10 in assay [5], 3 in assay [6], 1 in [7] and 4 in assay [8].
Take “Rspo-1 (as added in the TOPflash assay of FIG. 5B) (from UniProt Q2MKA7 21-263) (ligand)”: in assay [9], the TOPFlash activity, Wnt3A with Rspo-1 against Wnt3A alone, HEK293T cells was found to be 12 fold.
For “FLAG/HA-tagged Lgr5 (from UniProt O75473 22-907) (receptor)”, the # unique peptides in assay [10] was 3; in [11] it was 2; in [12], 2; in assay [13] it was 3; in [14], 6; in assay [15], 1. Moreover, the # unique peptides in assay [16] is 1; in assay [17] it was 1; in assay [18] it was 6; in assay [19] it was 5. Moreover, the MASCOT Protein score (MudPit) in [10] was 71; in assay [11], 91; in [12], 43; in assay [13], 122; in assay [14] it was 91; in assay [15], 41. The MASCOT Protein score (MudPit) turned out to be 53 in [16], 94 in assay [17], 193 in [18] and 140 in [19]. The assigned spectra in assay [10] was found to be 3; in assay [11], 3; in [12] it was 2; in [13], 3; in assay [14], 6; in [15], 1. The assigned spectra amounted to 1 in assay [16], 2 in [17], 11 in [18] and 8 in assay [19].
